PMC2865256 (Journal of immunology (Baltimore, Md. : 1950), 2009)

Target: T1, mouse HVEM on splenic T cells (mouse (endogenous in splenic T cells), UniProt Q80WM9 39-275)
T1 sequence (looked up): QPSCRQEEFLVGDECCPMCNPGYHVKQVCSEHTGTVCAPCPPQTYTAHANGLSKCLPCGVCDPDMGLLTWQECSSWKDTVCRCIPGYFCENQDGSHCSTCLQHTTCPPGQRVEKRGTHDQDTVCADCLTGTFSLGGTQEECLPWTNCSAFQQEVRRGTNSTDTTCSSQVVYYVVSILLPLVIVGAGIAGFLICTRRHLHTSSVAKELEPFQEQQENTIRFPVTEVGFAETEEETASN
Experiment: flow cytometry on cells

B1: mouse BTLA-Fc (Fc fusion, UniProt Q7TSA3 30-183, looked up)
chain: EKATKRNDEECPVQLTITRNSKQSARTGELFKIQCPVKYCVHRPNVTWCKHNGTICVPLEVSPQLYTSWEENQSVPVFVLHFKPIHLSDNGSYSCSTNFNSQVINSHSVTIHVRERTQNSSEHPLITVSDIPDATNASGPSTMEERPGRTWLLY
MFI ratio of Btla-/- T cells to WT T cells: 4.4
